Earlier results, collected in US7186797B2, “Polypeptide conjugates with extended circulating half-lives” (Epix Pharmaceuticals, Inc., priority 2001, dated 2007).

B1: interferon γ: commercially important polypeptide-based drug currently in use (protein, UniProt P01579 24-161, looked up)
Interferon gamma: QDPYVKEAENLKKYFNAGHSDVADNGTLFLGILKNWKEESDRKIMQSQIVSFYFKLFKNFKDDQSIQKSVETIKEDMNVKFFNSNKKKRDDFEKLTNYSVTDLNVQRKAIHELIQVMAELSPAAKTGKRKRSQMLFRG
B2: granulocyte colony stimulating factor: commercially important polypeptide-based drug currently in use (protein, UniProt P09919 31-207, looked up)
Granulocyte …: TPLGPASSLPQSFLLKCLEQVRKIQGDGAALQEKLVSECATYKLCHPEELVLLGHSLGIPWAPLSSCPSQALQLAGCLSQLHSGLFLYQGLLQALEGISPELGPTLDTLQLDVADFATTIWQQMEELGMAPALQPTQGAMPAFASAFQRRAGGVLVASHLQSFLEVSYRVLRHLAQP

Settings: unconjugated polypeptide drug, background statement
For streptokinase, the t1/2 is given as 80 min.
In the case of “tissue plasminogen activator: commercially important polypeptide-based drug currently in use”, the t1/2 is given as 55 min.
For tumor necrosis factor, the t1/2 is given as 18 min.
In the case of “human growth hormone: commercially important polypeptide-based drug currently in use”, the t1/2 is listed as 30 min.
For urokinase, the t1/2 is listed as 50 min.
For “granulocyte macrophage colony stimulating factor: commercially important polypeptide-based drug currently in use”, the t1/2 is given as 120 min.
In the case of relaxin, the t1/2 is listed as 30 min.
For “Erythropoietin: commercially important polypeptide-based drug currently in use”, the t1/2 is given as 180 min.
For B1, the t1/2 is listed as 30 min.
In the case of B2, the t1/2 is listed as 120 min.
